{"source": "patent US8598081B2", "about": "“Specific delivery of agrochemicals” (priority 2010, dated 2013)", "molecules": {"B1": {"name": "VHH 5D4: VHH sequence; SEQ ID NO:20 by order of the list (protein, listed as Lama glama)", "VHH": "QVQLQESGGGLVQPGGSLRLSCAASGFDMRRFGIGWFRQVAGKEREGVSCSNVHDGTTYYTNDVKGRFTIVRDNTKNMLYLQMNKLRPEDTAVYSCATTDCEATAWGTYRGYFGQGTQVTVSS", "modifications": "5D4"}}, "key": {"[1]": {"tested_on": "leaf surface of potato leaves", "assay": "VHH binding to non-fixed leaf discs, potato", "parameters": "species or system potato (variety Desiree)", "settings": "5 μg/ml, detection with anti-histidine Alexa-488", "protocol": "VHH binding to non-fixed leaf discs of potato (variety Desiree), black nightshade, grass, wheat or azalea was investigated. For comparison, binding of CBM3a to non-fixed leaf discs of potato (variety Desiree) was analyzed in parallel. Leaf discs were prepared by punching a fresh potato leaf with a 5 mm belt hole puncher tool. Leaf discs were put immediately in wells of a 96-well plate containing 200 μl per well 5% MPBS or PBS, and incubated for 30 minutes. Leaf discs were transferred to solutions containing 5 μg/ml VHH antibody fragment, respectively, 5 μg/ml CBM3a in 2% MPBS or PBS and incubated for 60-90 minutes. Unbound VHH or CBM3a proteins were removed by washing three times with 2% MPBS or PBS. Bound VHH or CBM3a proteins were detected with incubation with monoclonal mouse anti-histidine antibodies directly conjugated with Alexa-488 fluorescent dye (Abd Serotec) in 1% MPBS for 1 hour. Unbound antibodies were removed by washing three times with PBS. Leaf discs were put on glass slides, covered with cover slips, and analyzed by microscopy or on a macrozoom microscope system (Nikon) or a SP5 confocal microscope system (Leica)."}, "potato lectin": {"target": "T1, potato lectin (Solanum tuberosum, UniProt Q9S8M0)", "T1 construct": "purchased Sigma", "T1 sequence (Q9S8M0 whole entry, looked up)": "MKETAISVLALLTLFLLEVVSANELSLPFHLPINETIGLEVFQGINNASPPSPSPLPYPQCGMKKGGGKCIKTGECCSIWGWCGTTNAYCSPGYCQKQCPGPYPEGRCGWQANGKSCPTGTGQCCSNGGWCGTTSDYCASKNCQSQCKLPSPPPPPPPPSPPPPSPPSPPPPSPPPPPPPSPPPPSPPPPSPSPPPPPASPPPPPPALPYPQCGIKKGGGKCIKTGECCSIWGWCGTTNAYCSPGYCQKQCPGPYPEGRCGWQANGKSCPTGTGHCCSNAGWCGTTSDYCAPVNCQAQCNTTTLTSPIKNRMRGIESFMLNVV", "assay": "VHH binding to potato lectin in ELISA", "settings": "Table 2; Blank (no antigen coating); VHH 3 μg/ml", "protocol": "ELISA plates (Maxisorp, Nunc) coated with 100 μl per well 100 μg/ml potato lectin (Sigma) in PBS were coated at 4° C. overnight and coating was continued at room temperature for 1 hour on the next day. Plates were washed three times with PBS/0.05%-TWEEN®-20 and blocked with 5% skimmed milk in PBS for 1 hour. VHH (3 μg/ml) were transferred to the potato lectin-coated plates and VHH antibody fragments were allowed to bind for 1 hour at room temperature. Bound VHH were detected with sequential incubations with monoclonal mouse anti-histidine antibodies (Abd Serotec) and rabbit anti-mouse IgG whole molecule antibodies conjugated with alkaline phosphatase (RaM/AP) (Sigma) in 1% MPBS/0.05%-TWEEN®-20. Unbound antibodies were removed by washing three times with PBS/0.05%-TWEEN®-20 after each antibody incubation. The plates were washed an additional two times with PBS and 100 μl pNPP disodium hexahydrate substrate (Sigma) was added to each well and the absorbance at 405 nm was measured (see Table 2)."}, "gum arabic": {"tested_on": "gum arabic", "assay": "VHH binding to gum arabic in ELISA", "parameters": "species or system acacia tree", "protocol": "Titration of VHH antibody fragments was performed on ELISA plates (Maxisorp, Nunc) coated with 100 μl per well 100 μg/ml gum arabic in 50 mM carbonate pH 9.6. Plates were coated at 4° C. overnight and coating was continued at room temperature for 1 hour on the next day. Plates were washed three times with PBS/0.05%-TWEEN®-20 and blocked with 5% skimmed milk in PBS for 1 hour. Four-fold serial dilutions of purified VHH antibody fragments were prepared in 1% MPBS/0.05%-TWEEN®-20 in polypropylene 96-well plates. Antibody concentrations ranged from 3 μg/ml to 12 ng/ml. Antibody dilutions were transferred to the gum arabic-coated plates and VHH antibody fragments were allowed to bind for 1 hour at room temperature. Bound VHH were detected with sequential incubations with monoclonal mouse anti-histidine antibodies (Abd Serotec) and rabbit anti-mouse IgG whole molecule antibodies conjugated with alkaline phosphatase (RaM/AP) (Sigma) in 1% MPBS/0.05%-TWEEN®-20. Unbound antibodies were removed by washing three times with PBS/0.05%-TWEEN®-20 after each antibody incubation. The plates were washed an additional two times with PBS and 100 μl pNPP disodium hexahydrate substrate (Sigma) was added to each well. The absorbance at 405 nm was measured and plotted as function of antibody concentration (see Table 1)."}}}
{"molecule": "B1", "values": [{"measurement": "binding to native potato leaf surface (fluorescence microscopy)", "setting": "[1]", "result": "binding leaf surface, stomata, glandular trichomes, and leaf hairs"}, {"measurement": "binding to native potato leaf surface (fluorescence microscopy)", "setting": "[1]; listed as 5D4", "result": "clearly binding to trichomes, stomata and cuticle"}, {"measurement": "absorbance at 405 nm", "setting": "potato lectin", "result": 0.072}, {"measurement": "absorbance at 405 nm", "setting": "gum arabic; Table 2, gum arabic coating, VHH 3 μg/ml", "result": 0.530}, {"measurement": "absorbance at 405 nm", "setting": "gum arabic; [VHH] 3 μg/ml (200 nM), gum arabic − (well without gum arabic)", "result": 0.075}]}
